From a protein production outcome set (Wang et al. 2014)

Experiment: label from the status in PepcDB records

MESFNTFVRQYNDQHAEAIAKGELEALAESSSAFIEKASGIKSRFVMNKEGILDPQRMVPYLPERSNDEWSILCEMAVAAAREALQRAGRSAADIDGVIVACSNLQRAYPAIAVEVQAALGIQGYGYDMNVACSSATFGIQAATTAIQTGQARAILMVNPEICTGHLNFRDRDSHFIFGDACTAVIVERADLAVSKHQFDIVSTRLLTQFSNNIRNNFGFLNRADESGIGKRDKLFVQEGRKVFKDVCPMVAELIGEHLAANEIQVAEVKRFWLHQANLNMNLLITRKLLGRDAEAHEAPVILDSYANTSSAGSVIALHKHQDDLPSGAIGVLSSFGAGYSIGSVILRKH
protein production: failed

MRVGVLGAKGKVGATMVRAVAAADDLTLSAELDAGDPLSLLTDGNTEVVIDFTHPDVVMGNLEFLIDNGIHAVVGTTGFTAERFQQVESWLVAKPNTSVLIAPNFAIGAVLSMHFAKQAARFFDSAEVIELHHPHKADAPSGTAARTAKLIAEARKGLPPNPDATSTSLPGARGADVDGIPVHAVRLAGLVAHQEVLFGTEGETLTIRHDSLDRTSFVPGVLLAVRRIAERPGLTVGLEPLLDLH
protein production: not failed

MIEKVYCQEVKPELDGKKVRLAGWVYTNMRVGKKIFLWIRDSTGIVQAVVAKNVVGEETFEKAKKLGRESSVIVEGIVKADERAPGGAEVHVEKLEVIQAVSEFPIPENPEQASPELLLDYRHLHIRTPKASAIMKVKETLIMAAREWLLKDGWHEVFPPILVTGAVEGGATLFKLKYFDKYAYLSQSAQLYLEAAIFGLEKVWSLTPSFRAEKSRTRRHLTEFWHLELEAAWMDLWDIMKVEEELVSYMVQRTLELRKKEIEMFRDDLTTLKNTEPPFPRISYDEAIDILQSKGVNVEWGDDLGADEERVLTEEFDRPFFVYGYPKHIKAFYMKEDPNDPRKVLASDMLAPEGYGEIIGGSQREDDYDKLLNRILEEGMDPKDYEWYLDLRRYGSVPHSGFGLGVERLVAWVLKLDHIRWAALFPRTPARLYP
protein production: not failed

MEKLKEFRGIKEHLGVFREAVKDAERIGFAGVPGVCTPFAQLFAYAVRDKDNIFIPNTDFSKARKLEVTEYGVELGEISPGNVDVLVLLGGLSMPGIGSDIEDVKKLVEDALEEGGELMGLCYMDMFARAGWYELLDFDCVINADIDGYVLRG
protein production: not failed

MEYSTDLGRRVLLTLAGVALLLVVGLVLSQFLPTLVFTVFLYYASRPIYRRLGRLPLPKSFLKRAVPYQKQVHAAATIFFFLLPFVVLVGYTLVLVIPELQSFFGEGGLGAAYLSQFQELQGGSPPGPLADLGFSEVLAMGPAEVIDLLRNATVQSWLGRVSDTLIGSLSLLTSLLLRVFIMFAGTYYLLTDGPRLVGWFLDTFDGSGVLREYAAAVDEELSSILFGNILNALVTGVIGIFVFSLYNLVAPGSVQIPFAPLVGALTGIGSLIPVVGMKIVYLPVAVLLAVSAVVTGQTAALAWVALFLVVTLVVVDTIPDFLIRPYVSGDLTHVGLLMFAYILGPIAFGFYGIFLGPMLLVLAAQFFRIIVPYIITGTVETTQTSLSEYDSGES
protein production: failed

MSNKEGSGGFRKRKHDNFPHNQRREGKDVNSSSPVMLAFKSFQQELDARHDKYERLVKLSRDITVESKRTIFLLHRITSAPDMEDILTESEIKLDGVRQKIFQVAQELSGEDMHQFHRAITTGLQEYVEAVSFQHFIKTRSLISMDEINKQLIFTTEDNGKENKTPSSDAQDKQFGTWRLRVTPVDYLLGVADLTGELMRMCINSVGNGDIDTPFEVSQFLRQVYDGFSFIGNTGPYEVSKKLYTLKQSLAKVENACYALKVRGSEIPKHMLADVFSVKTEMIDQEEGIS
protein production: failed

MIEEQGRVVATEPGAVWVETVRRSTCSSCSANAGCGQGLMQRLGVGAGRARVRALSDLSLRVGDAVVLGIHEDLLLRASVLFYLFPLLGFFVAALLATRAGLVEPLIIVSGLAGLLAAWLLVRRHARRHADDPASQPVVLRALISGPSDSA
protein production: failed

MASYVFIRVSKIRKGYFPVLLAIGFAITFAEGFILFLVNFGAIPTNGPTIQLVPQIIMQNPNPLIRFYGTLILLCFLNTIVLSIFYATIAKLLPKFSG
protein production: failed

MGGLFVTPAKAVKTTNYAEEIAALQPGTTPEEIMKSASQIAKQQHVKQDVILKQFYKEITADKAEGDRLAKESGMSIMGGSSGTKKLPTSAKGNIYYTNSYTAYYNHGHVGMYSAADKIVESVPSDGVRQIAYNARDVEDNSIVQTVSVSSSQKTAAADWAVSKVGDPYSFNFVNNRNTGHDGAKNCSKLLWSAFLLKAGIDIDSNGGLGVYPRDITSSSYTTTIMTIYLEHHHHHH
protein production: failed
